These results are taken from patent US9266964.

B1: X115-D05 (antibody, V domains shown)
VH: EVQLLESGGGLVQPGGSLRLSCAASGFTFSDYMMAWVRQAPGKGLEWVSSIVPSGGHTHYADSVKGRFTISRDNSKNTLYLQMNSLRAEDTAVYYCARVARGIAARSRTSYFDYWGQGTLVTVSS
VL: EIVLTQSPGTLSLSPGERATLSCRTSQFVNSNYLAWYQQKPGQAPRLLIYGASSRATGIPDRFSGSGSGTDFTLTISRLEPEDFAVYYCQQSSRTPWTFGQGTKVEIK
notes: only variable domains given; also called 559A-X115-D05; 559A-X0115-D05
B2: X115-H06 (antibody, V domains shown)
VH: B1 VH with D31H, M33L, A35T, S50Y, V52S, H59I, R101Q, A104S
VL: B1 VL
notes: only variable domains given; also called 559A-X115-H06; 559A-X0115-H06
B3: X115-E09 (antibody, V domains shown)
VH: B1 VH with D31H, M33L, A35T, S50Y, V52S, H59I, R101Q, Y111S, F112V, Y114Q
VL: B1 VL
notes: only variable domains given; also called 559A-X115-E09; 559A-X0115-E09
B4: M200-A10 (Fab, V domains shown)
VH: EVQLLESGGGLVQPGGSLRLSCAASGFTFSHYIMMWVRQAPGKGLEWVSGIYSSGGITVYADSVKGRFTISRDNSKNTLYLQMNSLRAEDTAVYYCAYRRTGVPRRDSFDIWGQGTMVTVSS
VL: DIQMTQSPSTLSASVGDRVTITCRASQSISSWLAWYQQKPGKAPNLLIYKASTLESGVPSRFSGSGSGTEFTLTISSLQPDDFATYYCQQYNTYWTFGQGTKVEIK
notes: Tested as Fab; printed HC runs into CH1
B5: M196-D12 (Fab, V domains shown)
VH: B4 VH with H31R, I33S, M35R, G50V, S53P, I57Q, V59Y, V103I, S108A
VL: B4 VL
notes: as for B4
B6: M196-C06 (Fab, V domains shown)
VH: B4 VH with H31I, I33S, M35H, G50S, S53P, G55R, I57M, V59W, V103I, S108A
VL: B4 VL
notes: as for B4
B7: M202-C01 (Fab, V domains shown)
VH: B4 VH with R106W, S108D
VL: B4 VL
notes: as for B4
B8: M202-H03 (Fab, V domains shown)
VH: B4 VH with Y98F, R106W, S108D
VL: B4 VL
notes: Tested as Fab; printed HC runs into CH1; Same CDRs as M202-C01, differs at the residue before HV-CDR3 (F for Y)
B9: M202-D09 (Fab, V domains shown)
VH: B4 VH with T101I
VL: B4 VL
notes: as for B4
B10: M202-A12 (Fab, V domains shown)
VH: B4 VH with R99Q, D110N
VL: B4 VL
notes: as for B4
B11: M202-C09 (Fab, V domains shown)
VH: B4 VH with T101I, S108D
VL: B4 VL
notes: as for B4
B12: M202-B03 (Fab, V domains shown)
VH: B4 VH with S108D
VL: B4 VL
notes: as for B4
B13: M201-A07 (Fab, V domains shown)
VH: B4 VH with S108E
VL: B4 VL
notes: as for B4
B14: M198-D12 (Fab, V domains shown)
VH: B4 VH with H31L, I33V, M35Y, G50Y, Y52V, S53P, I57P, V59A, V103I, S108A
VL: B4 VL
notes: as for B4
B15: M198-F09 (Fab, V domains shown)
VH: B4 VH with H31V, I33N, M35H, G50S, S53P, I57M, V59Y, V103I, S108A
VL: B4 VL
notes: as for B4
B16: M200-D03 (Fab, V domains shown)
VH: B4 VH with Y98W, T101I, I111M
VL: B4 VL
notes: as for B4
B17: M199-A08 (Fab, V domains shown)
VH: B4 VH with T101I, S108E
VL: B4 VL
B18: M198-A06 (Fab, V domains shown)
VH: B4 VH with H31I, I33S, M35H, G50S, I57P, V59K, V103I, S108A
VL: B4 VL
notes: as for B4
B19: M197-A09 (Fab, V domains shown)
VH: B4 VH with H31V, I33N, M35H, G50S, S53P, I57M, V59T, V103I, S108A
VL: B4 VL
notes: as for B4
B20: M210-H07 (Fab, V domains shown)
VH: B1 VH with D31H, M33L, A35T, S50Y, V52S, H59I, S110R, Y114Q
VL: B1 VL with E1D, V3Q, L4M, K40T, S66T, S68Y, F84Y, A85G, V86T, K104R
notes: Tested as Fab; printed HC runs into CH1; amber q written Q
B21: X69-C09 (IgG) (antibody, V domains shown)
VH: EVQLLESGGGLVQPGGSLRLSCAASGFTFSAYSMIWVRQAPGKGLEWVSYIRPSGGRTTYADSVKGRFTISRDNSKNTLYLQMNSLRAEDTAVYYCARGGLLLWFRELKSNYFDYWGQGTLVTVSS
VL: DIQMTQSPSSLSAFVGDRVTITCRASQPIDNYLNWYHQKPGKAPKLLIYAASRLQSGVPSRLSGSGFGTDFTLTISSLQPEDFGNYYCQQSYTVPYTFGGGTKVEIR
notes: Full length human IgG1; printed HC runs into CH1; also called Parental
B22: X67-B03 (IgG) (antibody, V domains shown)
VH: B21 VH with F105S
VL: B21 VL
notes: printed HC runs into CH1
B23: X67-E04 (IgG) (antibody, V domains shown)
VH: B21 VH with F105D
VL: B21 VL
notes: printed HC runs into CH1
B24: X67-C09 (IgG) (antibody, V domains shown)
VH: B21 VH with F105G
VL: B21 VL
notes: printed HC runs into CH1
B25: X67-C03 (IgG) (antibody, V domains shown)
VH: B21 VH with F105M
VL: B21 VL
notes: printed HC runs into CH1

Changes are numbered by the printed parent chain.

One assay deals with T1, human plasma kallikrein (full length, active) (human, UniProt P03952 20-390; P03952 391-638).
T1 construct: two disulfide linked polypeptides; also called Full length pKal; pKal
T1 sequence (P03952 20-390, chain 1 of 2): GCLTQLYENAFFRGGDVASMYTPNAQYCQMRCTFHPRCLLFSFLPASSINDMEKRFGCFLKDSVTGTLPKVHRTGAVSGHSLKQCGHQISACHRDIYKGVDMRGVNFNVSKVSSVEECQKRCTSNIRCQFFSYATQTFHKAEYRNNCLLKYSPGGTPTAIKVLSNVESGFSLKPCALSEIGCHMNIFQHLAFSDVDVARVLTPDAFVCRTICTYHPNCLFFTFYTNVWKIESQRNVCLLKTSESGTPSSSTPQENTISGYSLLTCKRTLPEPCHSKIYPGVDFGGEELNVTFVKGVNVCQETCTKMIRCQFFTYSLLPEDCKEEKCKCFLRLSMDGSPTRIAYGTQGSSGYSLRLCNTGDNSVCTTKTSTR
T1 sequence (P03952 391-638, chain 2 of 2): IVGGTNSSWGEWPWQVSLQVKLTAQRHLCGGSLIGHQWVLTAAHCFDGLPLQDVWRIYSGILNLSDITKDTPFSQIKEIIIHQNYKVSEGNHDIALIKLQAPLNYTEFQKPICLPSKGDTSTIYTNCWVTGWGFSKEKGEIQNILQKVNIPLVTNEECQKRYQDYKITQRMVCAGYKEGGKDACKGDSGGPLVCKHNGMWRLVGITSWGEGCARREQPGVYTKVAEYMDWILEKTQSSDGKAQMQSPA
Description: Ki,app: enzyme inhibition, fluorescent substrate, 2 h pre-incubation at 30 C, tight-binding fit. As for the experimental part:
Apparent Inhibition constants (K_{i,app} values) were measured by pre-incubating enzyme and inhibitor solutions prior to initiating the reactions with substrate. Enzyme and inhibitor were pre-incubated for 2 hours at 30° C. in a 96-well plate by adding 10 μL of a 10× enzyme solution and 10 μL of 10× inhibitor solutions to 70 μL of reaction buffer. Reactions were initiated by the addition of 10 μL of a 10× concentrated stock of substrate, and were monitored at 30° C. in a fluorescence plate reader with the excitation and emission wavelengths set at 360 nm/460 nm, respectively. Kinetic data were acquired by the increase in fluorescence, and initial rates for each condition were plotted against the total inhibitor concentration. The data was fit to the following equation for tight binding inhibitors: […]
B1: the Ki is 0.25 nM. In the case of B2, the Ki was found to be 0.35 nM.

With B3, the Ki worked out at 0.34 nM.

A further assay addresses T2, human plasma kallikrein (human, UniProt P03952 20-390; P03952 391-638).
T2 construct: two disulfide-linked chains; also called pKal; human pKal
Description: Ki,app, inhibition of human pKal enzyme activity.
The molecule B4 showed a Ki of 0.3 nM. Turning to B5, the Ki came to 0.2 nM. B6: the Ki stood at 0.1 nM. In the case of B7, the Ki worked out at 0.1 nM.

In turn, B8 came in with a Ki of 0.1 nM.

The molecule B9 yielded a Ki of 0.4 nM. For B10, the Ki was 0.2 nM. B11 yielded a Ki of 0.3 nM. The same measure, in the same setting: then B12, with 0.3 nM; and B13, with 0.1 nM; and B14, with 0.7 nM. For B15, the Ki was determined as 0.2 nM.

For B16, the Ki stood at 0.1 nM. Take B17: the Ki is 0.06 nM.

Consider B18, for which the Ki was found to be 0.4 nM. On the same count and under the same terms, then B19, with 0.6 nM.

Another assay addresses T2, human plasma kallikrein. The experiment in a line: Ki,app, inhibition of human pKal enzyme activity. The source holds these as a separate data set.
Consider B20, for which the Ki was 0.4 nM.

The next assay has as its target T3, human plasma kallikrein (human, UniProt P03952 20-390; P03952 391-638).
T3 construct: two disulfide linked chains; also called pKal; human pKal
The experiment in a line: Ki,app as an IgG, steady state enzyme kinetics, inhibition of human pKal.
Consider B21, for which the Ki was 0.2 nM. On the same count and under the same terms, then B22, with 2.1 nM; and B23, with 1.3 nM; and B24, with 8.6 nM. As to B25, the Ki is 0.7 nM.

The target in a further assay is T2, human plasma kallikrein. Description: cell-based or functional assay.
As usually defined, the % inhibition is the relative decrease from the control value, in per cent. As to B20, the “% inhibition at 10 nM” value came to 92.8%.

The target of a further assay is T2, human plasma kallikrein. Description: cell-based or functional assay. This is another data set of the same source.
With B4, the “% inhibition at 10 nM” value was determined as 94.3%. In the case of B5, the “% inhibition at 10 nM” value was found to be 94.1%.

With B6, the “% inhibition at 10 nM” value is 97.2%. On to B7, for which the “% inhibition at 10 nM” value was found to be 96.3%. As for B8, the “% inhibition at 10 nM” value was 95.7%. The same measure, in the same setting: with B9 the figure was 95%. B10: the “% inhibition at 10 nM” value is 97.5%. Take B11: the “% inhibition at 10 nM” value is 92.3%. The same measure, in the same setting: with B12 the figure was 93.1%; with B13, 95.7%.

For the molecule B14, the “% inhibition at 10 nM” value was 63.5%. For the molecule B15, the “% inhibition at 10 nM” value came to 96.9%. On to B16, for which the “% inhibition at 10 nM” value is 95.9%. Still for that read-out and setting: with B17 the figure was 96.4%; with B18, 96.1%; with B19, 94.9%.
